Patent publication US20260167699A1 (Chugai, published 2026)
Numbering of substitutions follows the chain as printed.

T1: FcγRIIa(H) extracellular domain, C-terminal His tag (human, UniProt P12318 34-217)
T1 construct: extracellular domain; Allotype H131; also called 2aH
T1 sequence: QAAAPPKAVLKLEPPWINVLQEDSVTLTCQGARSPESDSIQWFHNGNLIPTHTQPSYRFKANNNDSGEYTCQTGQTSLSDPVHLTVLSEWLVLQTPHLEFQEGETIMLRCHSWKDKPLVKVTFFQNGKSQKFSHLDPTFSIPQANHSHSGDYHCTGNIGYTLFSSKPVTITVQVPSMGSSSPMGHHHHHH

T2: FcγRIIb extracellular domain, C-terminal His tag (human, UniProt P31994 43-217)
T2 construct: extracellular domain; also called 2b
T2 sequence: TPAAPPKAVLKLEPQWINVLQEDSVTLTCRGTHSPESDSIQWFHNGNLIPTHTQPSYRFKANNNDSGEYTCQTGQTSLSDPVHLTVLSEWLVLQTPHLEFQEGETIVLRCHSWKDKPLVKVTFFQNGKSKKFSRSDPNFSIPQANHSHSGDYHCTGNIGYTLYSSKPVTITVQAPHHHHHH

T3: FcγRIIa(R) extracellular domain, C-terminal His tag (human, UniProt P12318 34-217)
T3 construct: extracellular domain; Allotype R131; also called 2aR
T3 sequence: T1 sequence with H134R

B1: GpH7-A5/GpH7-B3 variant K326_16H/GpL16-k0 (antibody, human IgG1, kappa)
heavy 1: not shown
heavy 2: not shown
light: DIVMTQSPLSLPVTPGEPASISCQASESLVHSNRNTYLHWYLQKPGQSPQLLIYKVSNRFSGVPDRFSGSGSGTDFTLKISRVEAEDVGVYYCSQNTHVPPTFGQGTKVEIERTVAAPSVFIFPPSDEQLKSGTASVVCLLNNFYPREAKVQWKVDNALQSGNSQESVTEQDSKDSTYSLSSTLTLSKADYEKHKVYACEVTHQGLSSPVTKSFNRGEC
notes: He Ab: anti-glypican 3 IgG1 heterodimer, only the GpH7-B3 chain mutated; position in EU numbering; also called He Ab
B2: GpH7-A5/GpH7-B3 variant K326_18N/GpL16-k0 (antibody, human IgG1, kappa)
heavy 1: not shown
heavy 2: not shown
light: B1 light
notes: as for B1
B3: GpH7-A5/GpH7-B3 variant K326_19Q/GpL16-k0 (antibody, human IgG1, kappa)
heavy 1: not shown
heavy 2: not shown
light: B1 light
notes: as for B1
B4: GpH7-A5/GpH7-B3 variant L328_02A/GpL16-k0 (antibody, human IgG1, kappa)
heavy 1: not shown
heavy 2: not shown
light: B1 light
notes: as for B1
B5: GpH7-A5/GpH7-B3 variant L328_03V/GpL16-k0 (antibody, human IgG1, kappa)
heavy 1: not shown
heavy 2: not shown
light: B1 light
notes: as for B1
B6: GpH7-A5/GpH7-B3 variant L328_04F/GpL16-k0 (antibody, human IgG1, kappa)
heavy 1: not shown
heavy 2: not shown
light: B1 light
notes: as for B1
B7: GpH7-A5/GpH7-B3 variant L328_06M/GpL16-k0 (antibody, human IgG1, kappa)
heavy 1: not shown
heavy 2: not shown
light: B1 light
notes: as for B1
B8: GpH7-A5/GpH7-B3 variant L328_07I/GpL16-k0 (antibody, human IgG1, kappa)
heavy 1: not shown
heavy 2: not shown
light: B1 light
notes: as for B1
B9: GpH7-A5/GpH7-B3 variant L328_13S/GpL16-k0 (antibody, human IgG1, kappa)
heavy 1: not shown
heavy 2: not shown
light: B1 light
notes: as for B1
B10: GpH7-A5/GpH7-B3 variant L328_14T/GpL16-k0 (antibody, human IgG1, kappa)
heavy 1: not shown
heavy 2: not shown
light: B1 light
notes: as for B1
B11: GpH7-A5/GpH7-B3 variant L328_15Y/GpL16-k0 (antibody, human IgG1, kappa)
heavy 1: not shown
heavy 2: not shown
light: B1 light
notes: as for B1
B12: GpH7-A5/GpH7-B3 variant L328_16H/GpL16-k0 (antibody, human IgG1, kappa)
heavy 1: not shown
heavy 2: not shown
light: B1 light
notes: as for B1
B13: GpH7-A5/GpH7-B3 variant L328_18N/GpL16-k0 (antibody, human IgG1, kappa)
heavy 1: not shown
heavy 2: not shown
light: B1 light
notes: as for B1
B14: GpH7-A5/GpH7-B3 variant L328_19Q/GpL16-k0 (antibody, human IgG1, kappa)
heavy 1: not shown
heavy 2: not shown
light: B1 light
notes: as for B1
B15: GpH7-A5/GpH7-B3 variant N325_09D/GpL16-k0 (antibody, human IgG1, kappa)
heavy 1: not shown
heavy 2: not shown
light: B1 light
notes: as for B1
B16: GpH7-A5/GpH7-B3 variant N325_13S/GpL16-k0 (antibody, human IgG1, kappa)
heavy 1: not shown
heavy 2: not shown
light: B1 light
notes: as for B1
B17: GpH7-A5/GpH7-B3 variant N325_16H/GpL16-k0 (antibody, human IgG1, kappa)
heavy 1: not shown
heavy 2: not shown
light: B1 light
notes: as for B1
B18: GpH7-A5/GpH7-B3 variant P329_09D/GpL16-k0 (antibody, human IgG1, kappa)
heavy 1: not shown
heavy 2: not shown
light: B1 light
notes: as for B1
B19: GpH7-A5/GpH7-B3 variant P329_10E/GpL16-k0 (antibody, human IgG1, kappa)
heavy 1: not shown
heavy 2: not shown
light: B1 light
notes: as for B1
B20: GpH7-A5/GpH7-B3 variant P331_02A/GpL16-k0 (antibody, human IgG1, kappa)
heavy 1: not shown
heavy 2: not shown
light: B1 light
notes: as for B1
B21: GpH7-A5/GpH7-B3 variant P331_03V/GpL16-k0 (antibody, human IgG1, kappa)
heavy 1: not shown
heavy 2: not shown
light: B1 light
notes: as for B1
B22: GpH7-A5/GpH7-B3 variant P331_04F/GpL16-k0 (antibody, human IgG1, kappa)
heavy 1: not shown
heavy 2: not shown
light: B1 light
notes: as for B1
B23: GpH7-A5/GpH7-B3 variant P331_06M/GpL16-k0 (antibody, human IgG1, kappa)
heavy 1: not shown
heavy 2: not shown
light: B1 light
notes: as for B1
B24: GpH7-A5/GpH7-B3 variant P331_07I/GpL16-k0 (antibody, human IgG1, kappa)
heavy 1: not shown
heavy 2: not shown
light: B1 light
notes: as for B1
B25: GpH7-A5/GpH7-B3 variant P331_08L/GpL16-k0 (antibody, human IgG1, kappa)
heavy 1: not shown
heavy 2: not shown
light: B1 light
notes: as for B1
B26: GpH7-A5/GpH7-B3 variant P331_09D/GpL16-k0 (antibody, human IgG1, kappa)
heavy 1: not shown
heavy 2: not shown
light: B1 light
notes: as for B1
B27: GpH7-A5/GpH7-B3 variant P331_10E/GpL16-k0 (antibody, human IgG1, kappa)
heavy 1: not shown
heavy 2: not shown
light: B1 light
notes: as for B1
B28: GpH7-A5/GpH7-B3 variant P331_11K/GpL16-k0 (antibody, human IgG1, kappa)
heavy 1: not shown
heavy 2: not shown
light: B1 light
notes: as for B1
B29: GpH7-A5/GpH7-B3 variant P331_13S/GpL16-k0 (antibody, human IgG1, kappa)
heavy 1: not shown
heavy 2: not shown
light: B1 light
notes: as for B1
B30: GpH7-A5/GpH7-B3 variant P331_14T/GpL16-k0 (antibody, human IgG1, kappa)
heavy 1: not shown
heavy 2: not shown
light: B1 light
notes: as for B1

These binders were tested against T4, FcγRIIIa extracellular domain, C-terminal His tag (human, UniProt P08637 17-208) (assay: SPR (Biacore); binding relative to GpH7-A5/GpH7-B3/GpL16-k0 x100;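 note: antibodies captured on a chip surface, soluble FcγR flowed over in HBS-EP+ running buffer at 25 °C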).
T4 construct: extracellular domain; also called 3a
T4 sequence (P08637 other isoform, or with tags, fused parts or gaps): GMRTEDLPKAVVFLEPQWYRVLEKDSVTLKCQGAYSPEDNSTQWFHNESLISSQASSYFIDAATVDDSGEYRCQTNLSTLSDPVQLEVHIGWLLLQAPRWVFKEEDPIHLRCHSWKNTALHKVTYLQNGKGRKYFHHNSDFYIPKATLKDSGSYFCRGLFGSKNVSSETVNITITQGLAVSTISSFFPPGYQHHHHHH

In order of rising “He/Con 3a” value:
1. B13  51.1%
2. B18  52.5%
3. B19  52.7%
4. B15  53%
5. B12  55.9%
6. B24  60.4%
7. B28  61.8%
8. B25  66%
9. B21  66.9%
10. B30  67.8%
11. B17  68%
12. B23  68.4%
13. B27  68.7%
14. B11  70.2%
15. B22  70.7%
16. B26  71.6%
17. B16  71.9%
18. B9  73.7%
19. B10  77.4%
20. B7  80.8%
21. B5  80.9%
22. B29  80.9%
23. B4  81.3%
24. B6  81.5%
25. B20  82.5%
26. B14  83.4%
27. B8  86.4%
28. B1  106%
29. B3  117%
30. B2  134%

What follows are binders tested against T1, FcγRIIa(H) extracellular domain, … in the same assay as above.

In order of falling “He/Con 2aH” value:
1. B4  154%
2. B9  146%
3. B10  138%
4. B7  122%
5. B5  116%
6. B2  113%
7. B8  111%
8. B3  106%
9. B11  106%
10. B14  103%
11. B1  102%
12. B29  94%
13. B20  93.9%
14. B26  93.6%
15. B27  90.1%
16. B23  88.1%
17. B22  87.7%
18. B30  86.5%
19. B25  85.9%
20. B21  85.4%
21. B6  84.9%
22. B12  84.5%
23. B28  83.7%
24. B16  83%
25. B13  80.6%
26. B24  80.1%
27. B19  57.6%
28. B18  57.1%
29. B15  55.3%
30. B17  50%

The binders below were run against T2, FcγRIIb extracellular domain, … in the same assay as above.

In order of falling “He/Con 2b” value:
1. B6  273%
2. B11  240%
3. B8  200%
4. B16  198%
5. B9  186%
6. B4  180%
7. B7  176%
8. B10  176%
9. B5  157%
10. B3  156%
11. B15  139%
12. B1  133%
13. B21  132%
14. B14  131%
15. B27  128%
16. B24  127%
17. B22  122%
18. B2  118%
19. B23  113%
20. B30  111%
21. B20  110%
22. B29  107%
23. B25  106%
24. B26  104%
25. B13  101%
26. B12  100%
27. B28  93.9%
28. B17  78.5%
29. B18  60.4%
30. B19  59.5%

The binders below were run against T5, FcγRIa extracellular domain, C-terminal His tag (human, UniProt P12314 16-292) in the same assay as above.
T5 construct: extracellular domain; also called 1a
T5 sequence (P12314 other isoform, or with tags, fused parts or gaps): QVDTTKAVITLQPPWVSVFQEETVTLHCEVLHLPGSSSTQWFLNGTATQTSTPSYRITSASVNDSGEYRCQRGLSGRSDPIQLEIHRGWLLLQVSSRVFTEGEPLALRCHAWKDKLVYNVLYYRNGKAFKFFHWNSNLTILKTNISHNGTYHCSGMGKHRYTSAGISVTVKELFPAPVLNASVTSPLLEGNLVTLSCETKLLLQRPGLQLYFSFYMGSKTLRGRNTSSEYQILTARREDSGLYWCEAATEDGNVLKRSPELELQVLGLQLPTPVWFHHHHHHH

In order of rising “He/Con 1a” value:
1. B18  80.1%
2. B19  81.4%
3. B12  98.5%
4. B17  99.9%
5. B6  100%
6. B28  100%
7. B4  101%
8. B7  101%
9. B9  101%
10. B13  101%
11. B8  102%
12. B16  102%
13. B30  102%
14. B5  103%
15. B10  103%
16. B11  104%
17. B14  104%
18. B21  104%
19. B15  105%
20. B20  105%
21. B25  105%
22. B23  106%
23. B24  106%
24. B3  108%
25. B22  108%
26. B27  108%
27. B29  108%
28. B1  109%
29. B26  109%
30. B2  110%

The binders below were run against T3, FcγRIIa(R) extracellular domain, … in the same assay as above.

In order of rising “He/Con 2aR” value:
1. B19  72.7%
2. B18  76%
3. B13  76.4%
4. B17  85.3%
5. B28  94.6%
6. B25  101%
7. B26  101%
8. B29  104%
9. B30  104%
10. B20  105%
11. B23  105%
12. B12  106%
13. B24  109%
14. B2  110%
15. B22  110%
16. B15  111%
17. B27  112%
18. B21  114%
19. B1  115%
20. B14  115%
21. B3  124%
22. B16  137%
23. B7  148%
24. B4  150%
25. B5  150%
26. B9  150%
27. B10  153%
28. B8  160%
29. B11  174%
30. B6  177%
